Assay results published in the supplement of paper PMC7877785.
± gives the uncertainty stated by the source.

Assay: self-splicing fitness, log relative to wild type (ln ratio); higher = more splicing; Tetrahymena group I intron in knt gene, E. coli kanamycin selection, DiMSum; sequences stand for … in CUCUCU…GGAGGGAAAAGUUAUCAGGCAUGCACCUGGUAGCUAGUCUUUAAACCAAUAGAUUGCAUCGGUUUAAAAGGCAAGACCGUCAAAUUGCGGGAAAGGGGUCAACAGCCGUUCAGUACCAAGUCUCAGGGGAAACUUUGAGAUGGCCUUGCAAAGGGUAUGGUAAUAAGCUGACGGACAUGGUCCUAACCACGCAGCCAAGUCCUAAGUCAACAGAUCUUCUGUUGAUAUGGAUGCAGUUCACAGACUAAAUGUCGGUCGGGGAAGAUGUAUUCUUCUCAUAAGAUAUAGUCGGACCUCUCCUUAAUGGGAGCUAGCGGAUGAAGUGAUGCAACACUGGAGCCGCUGGGAACUAAUUUGUAUGCGAAAGUAUAUUGAUUAGUUUUGGAGUACUCGUGGUCG
Summary of the method: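 Fitness was computed with DiMSum as the error-weighted combination of replicate fold changes, kanamycin versus none, each normalised to wild type. The library randomised all eight intron nucleotides of the P1ex region, with the intron placed in the knt kanamycin-resistance gene on pET-22b(+) in E. coli BL21(DE3). Six replicate transformations were grown overnight at 37°C or 30°C on LB agar with or without 25 μg/mL kanamycin, plus 100 μg/mL carbenicillin, 50 μM IPTG and 0.2% rhamnose. Pooled colonies were amplicon-sequenced on an Illumina HiSeq 2500.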

| Sequence | self-splicing fitness (ln) (30 °C) | self-splicing fitness (ln) (37 °C) |
| --- | --- | --- |
| CUGAAGCAAUAUUACGCCCG | -0.0662 ± 0.23 | 0.309 ± 0.24 |
| CUGAAGCAAUAUUACGCCCU | -3.03 ± 0.22 | -2.86 ± 0.47 |
| CUGAAGCAAUAUUACGCCGA | -1.44 ± 0.22 | – |
| CUGAAGCAAUAUUACGCGAA | -3.12 ± 0.32 | -0.319 ± 0.18 |
| CUGAAGCAAUAUUACGCGCU | -3.35 ± 0.29 | – |
| CUGAAGCAAUAUUACGCUUU | -3.4 ± 0.31 | -3.78 ± 0.42 |
| CUGAAGCAAUAUUACGGAAU | -3.01 ± 0.15 | -1.96 ± 0.15 |
| CUGAAGCAAUAUUACGGCUC | -2.75 ± 0.16 | -2.52 ± 0.25 |
| CUGAAGCAAUAUUACGUACA | -2.36 ± 0.21 | -1.39 ± 0.25 |
| CUGAAGCAAUAUUACGUGGA | -4.08 ± 0.3 | -2.63 ± 0.27 |
| CUGAAGCAAUAUUACGUGUA | -4.08 ± 0.24 | -2.12 ± 0.2 |
| CUGAAGCAAUAUUACGUUCC | – | -2.57 ± 0.3 |
| CUGCAGCAAUAUUACGAACA | -3.3 ± 0.24 | -1.49 ± 0.14 |
| CUGCAGCAAUAUUACGAAGG | -2.05 ± 0.13 | -1.06 ± 0.16 |
| CUGCAGCAAUAUUACGAAUA | -1.74 ± 0.45 | -1.3 ± 0.2 |
| CUGCAGCAAUAUUACGACAU | -1.04 ± 0.012 | -0.363 ± 0.032 |
| CUGCAGCAAUAUUACGACCC | -3.76 ± 0.36 | -1.05 ± 0.48 |
| CUGCAGCAAUAUUACGAGAG | -1.64 ± 0.12 | -2.96 ± 0.22 |
| CUGCAGCAAUAUUACGAGCA | -3.11 ± 0.21 | -2.38 ± 0.22 |
| CUGCAGCAAUAUUACGAUGG | -1.7 ± 0.08 | -1.18 ± 0.1 |
| CUGCAGCAAUAUUACGCACG | -1.03 ± 0.047 | -0.409 ± 0.069 |
| CUGCAGCAAUAUUACGCAUU | -4.22 ± 0.2 | -2.21 ± 0.23 |
| CUGCAGCAAUAUUACGCGAA | -3.31 ± 0.33 | -2.52 ± 0.27 |
| CUGCAGCAAUAUUACGCGCG | -1.6 ± 0.075 | -0.249 ± 0.087 |
| CUGCAGCAAUAUUACGCGGU | -2.5 ± 0.15 | -2.89 ± 0.23 |

| Sequence | self-splicing fitness (ln) (30 °C) | self-splicing fitness (ln) (37 °C) |
| --- | --- | --- |
| CUGCAGCAAUAUUACGGCGC | -3.82 ± 0.3 | -2.75 ± 0.4 |
| CUGCAGCAAUAUUACGGGAU | -2.46 ± 0.096 | -2.1 ± 0.15 |
| CUGCAGCAAUAUUACGGUAG | -3.65 ± 0.1 | -2.45 ± 0.11 |
| CUGCAGCAAUAUUACGGUUA | -2.6 ± 0.16 | -1.03 ± 0.12 |
| CUGCAGCAAUAUUACGGUUG | -1.02 ± 0.13 | -1.83 ± 0.19 |
| CUGCAGCAAUAUUACGUCAC | -3.39 ± 0.31 | – |
| CUGCAGCAAUAUUACGUGGA | -2.92 ± 0.16 | -3.04 ± 0.2 |
| CUGCAGCAAUAUUACGUGUC | -4.46 ± 0.28 | -2.79 ± 0.29 |
| CUGCAGCAAUAUUACGUUAU | -3.94 ± 0.17 | -3.07 ± 0.3 |
| CUGCAGCAAUAUUACGUUCG | -0.733 ± 0.074 | -0.62 ± 0.095 |
| CUGGAGCAAUAUUACGCACG | -0.0736 ± 0.32 | -1.08 ± 0.29 |
| CUGGAGCAAUAUUACGCAUC | – | -0.757 ± 0.42 |
| CUGGAGCAAUAUUACGGACC | -3.79 ± 0.24 | -2.04 ± 0.34 |
| CUGGAGCAAUAUUACGGAUG | -1.12 ± 0.16 | -0.927 ± 0.14 |
| CUGGAGCAAUAUUACGGGAC | 0.251 ± 0.35 | -1.08 ± 0.41 |
| CUGGAGCAAUAUUACGGGCU | -3.05 ± 0.37 | -2.46 ± 0.49 |
| CUGGAGCAAUAUUACGGGGA | -3.21 ± 0.28 | -2.39 ± 0.37 |
| CUGGAGCAAUAUUACGGGUC | -1.97 ± 0.16 | -2.26 ± 0.34 |
| CUGGAGCAAUAUUACGGUAG | -2.51 ± 0.22 | -0.514 ± 0.16 |
| CUGGAGCAAUAUUACGGUUA | -1.79 ± 0.26 | -2.31 ± 0.26 |
| CUGGAGCAAUAUUACGGUUG | -1.87 ± 0.081 | -1.11 ± 0.095 |
| CUGGAGCAAUAUUACGUAUU | -3.84 ± 0.31 | -2.09 ± 0.27 |
| CUGGAGCAAUAUUACGUCCC | – | -1.4 ± 0.46 |
| CUGGAGCAAUAUUACGUCCU | -3.17 ± 0.16 | -2.56 ± 0.22 |
| CUGGAGCAAUAUUACGUUAU | -4.35 ± 0.31 | -2.82 ± 0.26 |

| Sequence | self-splicing fitness (ln) (30 °C) | self-splicing fitness (ln) (37 °C) |
| --- | --- | --- |
| CUGGAGCAAUAUUACGUUGC | -3.09 ± 0.33 | – |
| CUGGAGCAAUAUUACGUUGU | -2.64 ± 0.29 | -3.72 ± 0.33 |
| CUGUAGCAAUAUUACGAACA | -2 ± 0.41 | – |
| CUGUAGCAAUAUUACGAUAC | -2.43 ± 0.29 | – |
| CUGUAGCAAUAUUACGAUAG | -1.9 ± 0.23 | -1.17 ± 0.15 |
| CUGUAGCAAUAUUACGAUAU | -4.06 ± 0.32 | -2.75 ± 0.32 |
| CUGUAGCAAUAUUACGAUCU | -3.56 ± 0.26 | -2.05 ± 0.29 |
| CUGUAGCAAUAUUACGCCAC | -2.54 ± 0.25 | -2.09 ± 0.47 |
| CUGUAGCAAUAUUACGCCAU | -3.3 ± 0.34 | – |
| CUGUAGCAAUAUUACGCGGG | -3.04 ± 0.24 | -2.07 ± 0.31 |
| CUGUAGCAAUAUUACGCUAG | -3.71 ± 0.21 | -2.36 ± 0.23 |
| CUGUAGCAAUAUUACGGAAC | – | -2.87 ± 0.34 |
| CUGUAGCAAUAUUACGGAAG | -3.31 ± 0.16 | -2.22 ± 0.19 |
| CUGUAGCAAUAUUACGGAUU | -3.48 ± 0.28 | -2.7 ± 0.33 |
| CUGUAGCAAUAUUACGGCUG | -0.442 ± 0.099 | -0.0988 ± 0.13 |
| CUGUAGCAAUAUUACGGCUU | -3.72 ± 0.25 | -2.86 ± 0.3 |
| CUGUAGCAAUAUUACGGUGU | -3.41 ± 0.12 | -2.88 ± 0.14 |
| CUGUAGCAAUAUUACGGUUA | -2.17 ± 0.24 | -2.58 ± 0.36 |
| CUGUAGCAAUAUUACGUAAA | -3.52 ± 0.3 | -1.6 ± 0.23 |
| CUGUAGCAAUAUUACGUAGA | -2.66 ± 0.12 | -2.51 ± 0.16 |
| CUGUAGCAAUAUUACGUAGU | -4.78 ± 0.36 | -2.65 ± 0.35 |
| CUGUAGCAAUAUUACGUCAG | -3.53 ± 0.23 | -2.88 ± 0.34 |
| CUGUAGCAAUAUUACGUCCA | – | -2.89 ± 0.48 |
| CUGUAGCAAUAUUACGUCUG | -0.298 ± 0.088 | 0.128 ± 0.1 |
| CUGUAGCAAUAUUACGUGAU | -1.56 ± 0.085 | -0.44 ± 0.11 |

| Sequence | self-splicing fitness (ln) (30 °C) | self-splicing fitness (ln) (37 °C) |
| --- | --- | --- |
| CUGUAGCAAUAUUACGUGCG | -1.38 ± 0.08 | -0.547 ± 0.092 |
| CUUAAGCAAUAUUACGAAUA | -2.42 ± 0.27 | -3.17 ± 0.43 |
| CUUAAGCAAUAUUACGACUA | -1.35 ± 0.35 | – |
| CUUAAGCAAUAUUACGAGGC | -3.19 ± 0.32 | -2.53 ± 0.41 |
| CUUAAGCAAUAUUACGAGUC | -3.23 ± 0.33 | -2.33 ± 0.29 |
| CUUAAGCAAUAUUACGAUCA | -2.93 ± 0.26 | -3.2 ± 0.33 |
| CUUAAGCAAUAUUACGCAAA | -2.76 ± 0.4 | – |
| CUUAAGCAAUAUUACGCGAU | -1.91 ± 0.19 | -0.837 ± 0.18 |
| CUUAAGCAAUAUUACGCUCG | -2.09 ± 0.22 | 0.521 ± 0.29 |
| CUUAAGCAAUAUUACGCUUA | -3.39 ± 0.32 | -1.58 ± 0.2 |
| CUUAAGCAAUAUUACGGAGG | -2.43 ± 0.21 | -3.19 ± 0.37 |
| CUUAAGCAAUAUUACGGGAU | -2.82 ± 0.17 | -1.94 ± 0.19 |
| CUUAAGCAAUAUUACGGUAC | -3.99 ± 0.36 | -3.27 ± 0.32 |
| CUUAAGCAAUAUUACGGUGG | -1.7 ± 0.092 | -0.937 ± 0.1 |
| CUUAAGCAAUAUUACGGUUA | – | -2.16 ± 0.29 |
| CUUAAGCAAUAUUACGUACG | -0.58 ± 0.076 | -0.451 ± 0.079 |
| CUUAAGCAAUAUUACGUCCG | -0.258 ± 0.11 | 0.679 ± 0.19 |
| CUUAAGCAAUAUUACGUCGU | -4.59 ± 0.46 | -2.22 ± 0.29 |
| CUUAAGCAAUAUUACGUCUA | -3.67 ± 0.25 | -2.97 ± 0.23 |
| CUUAAGCAAUAUUACGUCUG | -0.605 ± 0.067 | -0.254 ± 0.08 |
| CUUAAGCAAUAUUACGUGUU | -4.03 ± 0.15 | -2.66 ± 0.15 |
| CUUAAGCAAUAUUACGUUCG | -1.05 ± 0.075 | -0.0528 ± 0.099 |
| CUUAAGCAAUAUUACGUUGG | -2.67 ± 0.15 | -2.4 ± 0.14 |
| CUUCAGCAAUAUUACGAAAG | -2.44 ± 0.077 | -1.55 ± 0.12 |
| CUUCAGCAAUAUUACGAAGC | -2.1 ± 0.17 | -2.43 ± 0.48 |
